Holding throughout (assay): flow cytometry, R4A-tetramer staining of splenocytes
A general note: A flow cytometer gives signals particle by particle.

The target of experiment [1] is peptide-reactive B cells (surface immunoglobulin) in splenocytes of BALB/c mice immunized with MAP-peptide (R4A peptide on a branched polylysine backbone) (mouse).
The target of experiment [2] is splenocytes of BALB/c mice immunized with MAP-core (mouse).
In experiment [3] the target is splenocytes of BALB/c mice immunized with adjuvant alone (mouse).

These results are taken from patent publication US20050287607A1.

No end group written: not given here. *: point of attachment. Biotin = O=C1N[C@H]2[C@H](CS[C@H]2CCCCC(=O)*)N1

In turn, Biotin-DWEYSLWLSN (peptide, part only; not given: labeled streptavidin, not shown: large carriers, also: tetramer with fluorochrome-labeled streptavidin/neutravidin) [R4A-tetramer (tetrameric fluorochrome-labeled form of the R4A peptide)] returned a frequency of cells staining (percent of gated cells) (% of gated cells) in experiment [1] of 1. The frequency of tetramer-binding cells (percent of the gated population) (% of the gated population) in experiment [2] and in experiment [3] was less than 0.05 in each case.
